Assays:
chd1_human CHD1 [1] = molecular target: chd1_human CHD1 (UniProt O14646)
chd1_human CHD1 [2] = molecular target: chd1_human CHD1 (UniProt O14646); remark: listed apart in the source

UniProt O14646, sequence (O14646 whole entry): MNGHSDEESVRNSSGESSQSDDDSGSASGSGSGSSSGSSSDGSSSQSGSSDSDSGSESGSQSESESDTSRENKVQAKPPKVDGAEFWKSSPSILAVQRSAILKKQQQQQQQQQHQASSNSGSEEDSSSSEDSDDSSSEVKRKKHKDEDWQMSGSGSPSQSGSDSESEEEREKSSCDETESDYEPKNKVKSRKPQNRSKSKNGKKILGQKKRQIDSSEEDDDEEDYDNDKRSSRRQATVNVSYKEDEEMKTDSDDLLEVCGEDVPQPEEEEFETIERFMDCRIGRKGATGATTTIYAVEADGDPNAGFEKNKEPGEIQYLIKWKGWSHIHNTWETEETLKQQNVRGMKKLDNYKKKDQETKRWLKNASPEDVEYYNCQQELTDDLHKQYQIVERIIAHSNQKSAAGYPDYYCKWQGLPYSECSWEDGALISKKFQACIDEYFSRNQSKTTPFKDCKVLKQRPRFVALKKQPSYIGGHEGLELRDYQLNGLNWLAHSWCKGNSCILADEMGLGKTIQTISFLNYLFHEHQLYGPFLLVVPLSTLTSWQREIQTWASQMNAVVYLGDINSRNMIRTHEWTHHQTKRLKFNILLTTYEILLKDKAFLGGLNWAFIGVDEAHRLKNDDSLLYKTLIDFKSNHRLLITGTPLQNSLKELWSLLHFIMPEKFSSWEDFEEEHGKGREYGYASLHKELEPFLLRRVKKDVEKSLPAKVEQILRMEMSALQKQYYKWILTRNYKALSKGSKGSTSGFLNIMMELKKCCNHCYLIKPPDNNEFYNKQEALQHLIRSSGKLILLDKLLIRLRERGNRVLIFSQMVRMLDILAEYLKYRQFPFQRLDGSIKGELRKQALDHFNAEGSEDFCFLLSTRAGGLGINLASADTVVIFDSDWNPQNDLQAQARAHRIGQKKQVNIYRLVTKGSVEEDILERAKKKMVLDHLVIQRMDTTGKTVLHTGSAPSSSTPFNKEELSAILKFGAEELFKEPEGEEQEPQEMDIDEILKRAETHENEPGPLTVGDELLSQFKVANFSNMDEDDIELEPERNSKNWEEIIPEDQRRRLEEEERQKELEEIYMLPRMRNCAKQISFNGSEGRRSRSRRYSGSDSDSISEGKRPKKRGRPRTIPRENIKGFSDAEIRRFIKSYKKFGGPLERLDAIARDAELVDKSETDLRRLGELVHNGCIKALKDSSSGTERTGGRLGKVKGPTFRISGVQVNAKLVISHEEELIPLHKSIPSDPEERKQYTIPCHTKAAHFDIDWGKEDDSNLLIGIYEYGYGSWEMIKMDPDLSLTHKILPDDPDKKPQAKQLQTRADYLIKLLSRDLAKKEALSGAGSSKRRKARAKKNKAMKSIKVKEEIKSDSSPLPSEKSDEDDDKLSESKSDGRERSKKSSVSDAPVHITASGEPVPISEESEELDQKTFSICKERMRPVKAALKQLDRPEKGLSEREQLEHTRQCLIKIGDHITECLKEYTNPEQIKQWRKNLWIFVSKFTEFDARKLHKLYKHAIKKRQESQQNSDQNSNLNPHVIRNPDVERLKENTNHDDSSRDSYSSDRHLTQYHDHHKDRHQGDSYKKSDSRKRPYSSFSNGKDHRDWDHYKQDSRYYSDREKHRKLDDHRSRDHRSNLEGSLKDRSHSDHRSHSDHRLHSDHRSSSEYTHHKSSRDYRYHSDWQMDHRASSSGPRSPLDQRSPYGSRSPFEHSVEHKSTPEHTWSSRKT

Row | effect of a mutation on the interaction (chd1_human CHD1 [1]) | effect of a mutation on the interaction (chd1_human CHD1 [2]) | Substance
1 | disrupting interaction strength |  | Lysine-specific histone demethylase 1A (Homo sapiens) (from UniProt O60341-1) R113A
2 |  | disrupting interaction strength | Lysine-specific histone demethylase 1A (Homo sapiens) (from UniProt O60341-1) K114A
